Laboratory results published in IntAct's records for PubMed 23178593.

B1: Aprataxin and PNK-like factor (Homo sapiens), Q8IW19 (parent)
chain: MSGGFELQPRDGGPRVALAPGETVIGRGPLLGITDKRVSRRHAILEVAGGQLRIKPIHTNPCFYQSSEKSQLLPLKPNLWCYLNPGDSFSLLVDKYIFRILSIPSEVEMQCTLRNSQVLDEDNILNETPKSPVINLPHETTGASQLEGSTEIAKTQMTPTNSVSFLGENRDCNKQQPILAERKRILPTWMLAEHLSDQNLSVPAISGGNVIQGSGKEEICKDKSQLNTTQQGRRQLISSGSSENTSAEQDTGEECKNTDQEESTISSKEMPQSFSAITLSNTEMNNIKTNAQRNKLPIEELGKVSKHKIATKRTPHKEDEAMSCSENCSSAQGDSLQDESQGSHSESSSNPSNPETLHAKATDSVLQGSEGNKVKRTSCMYGANCYRKNPVHFQHFSHPGDSDYGGVQIVGQDETDDRPECPYGPSCYRKNPQHKIEYRHNTLPVRNVLDEDNDNVGQPNEYDLNDSFLDDEEEDYEPTDEDSDWEPGKEDEEKEDVEELLKEAKRFMKRK

Variants of: B1
Details: with xrcc5_human XRCC5, P13010
xrcc5_human XRCC5, P13010, sequence (P13010 whole entry): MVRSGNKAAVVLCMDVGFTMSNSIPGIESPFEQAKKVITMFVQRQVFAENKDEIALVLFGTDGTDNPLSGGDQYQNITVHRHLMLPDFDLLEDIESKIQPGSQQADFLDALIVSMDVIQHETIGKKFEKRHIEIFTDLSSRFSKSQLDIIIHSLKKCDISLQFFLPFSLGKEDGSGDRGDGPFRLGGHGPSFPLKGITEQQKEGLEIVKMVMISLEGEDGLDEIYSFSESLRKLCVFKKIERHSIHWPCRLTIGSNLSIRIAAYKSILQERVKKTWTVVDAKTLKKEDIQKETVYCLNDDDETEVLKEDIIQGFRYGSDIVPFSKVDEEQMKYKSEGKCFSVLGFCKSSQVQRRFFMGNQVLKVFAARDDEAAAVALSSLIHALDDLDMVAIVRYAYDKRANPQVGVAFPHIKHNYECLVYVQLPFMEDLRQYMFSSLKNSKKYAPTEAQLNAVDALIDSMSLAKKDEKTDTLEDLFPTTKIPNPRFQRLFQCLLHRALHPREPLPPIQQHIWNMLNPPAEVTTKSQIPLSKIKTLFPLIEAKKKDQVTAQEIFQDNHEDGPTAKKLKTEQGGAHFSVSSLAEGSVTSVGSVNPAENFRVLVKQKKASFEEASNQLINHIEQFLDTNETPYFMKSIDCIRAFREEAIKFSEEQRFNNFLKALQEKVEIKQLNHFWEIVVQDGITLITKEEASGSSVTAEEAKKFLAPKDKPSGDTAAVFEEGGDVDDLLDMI

Variant	effect of a mutation on the interaction
MSGGFELQPRDGGPRVALAPGETVIGRGPLLGITDKRVSRRHAILEVAGGQLRIKPIHTNPCFYQSSEKSQLLPLKPNLWCYLNPGDSFSLLVDKYIFRILSIPSEVEMQCTLRNSQVLDEDNILNETPKSPVINLPHETTGASQLEGSTEIAKTQMTPTNSVSFLGENRDCNKQQPILAERKRILPTGMLAEHLSDQNLSVPAISGGNVIQGSGKEEICKDKSQLNTTQQGRRQLISSGSSENTSAEQDTGEECKNTDQEESTISSKEMPQSFSAITLSNTEMNNIKTNAQRNKLPIEELGKVSKHKIATKRTPHKEDEAMSCSENCSSAQGDSLQDESQGSHSESSSNPSNPETLHAKATDSVLQGSEGNKVKRTSCMYGANCYRKNPVHFQHFSHPGDSDYGGVQIVGQDETDDRPECPYGPSCYRKNPQHKIEYRHNTLPVRNVLDEDNDNVGQPNEYDLNDSFLDDEEEDYEPTDEDSDWEPGKEDEEKEDVEELLKEAKRFMKRK [W189G]	disrupting interaction
